These results are taken from the Human Domainome abundance scans (Beltran et al. 2025).

± gives the uncertainty stated by the source.

B1: Androgen receptor, residues 557 to 632; numbered along this chain, P10275 (parent)
chain: QKTCLICGDEASGCHYGALTCGSCKVFFKRAAEGKQKYLCASRNDCTIDKFRRKNCPSCRLRKCYEAGMTLGARKL

This series covers variants of B1. Description: abundance fitness (aPCA) (normalised: wild type 0, dead -1); higher = more abundant; growth selection in yeast, the domain comes from the species named. The following applies: Homo sapiens.
For QKTCLICGDEASGCHYGALTCMSCKVFFKRAAEGKQKYLCASRNDCTIDKFRRKNCPSCRLRKCYEAGMTLGARKL, the abundance fitness is -0.163 ± 0.052.
The figure for QKTCLICGDEASGCHYGALTCDSCKVFFKRAAEGKQKYLCASRNDCTIDKFRRKNCPSCRLRKCYEAGMTLGARKL is -0.033 ± 0.064.
On to QKTCLICGDEASGCHYGALTCYSCKVFFKRAAEGKQKYLCASRNDCTIDKFRRKNCPSCRLRKCYEAGMTLGARKL, for which the abundance fitness was -0.207 ± 0.059.
Take QKTCLICGDEASGCHYGALTCVSCKVFFKRAAEGKQKYLCASRNDCTIDKFRRKNCPSCRLRKCYEAGMTLGARKL: the abundance fitness is -0.141 ± 0.042.
As for QKTCLICGDEASGCHYGALTCSSCKVFFKRAAEGKQKYLCASRNDCTIDKFRRKNCPSCRLRKCYEAGMTLGARKL, the abundance fitness is -0.048 ± 0.047.
For the variant QKTCLICGDEASGCHYGALTCKSCKVFFKRAAEGKQKYLCASRNDCTIDKFRRKNCPSCRLRKCYEAGMTLGARKL, the abundance fitness is -0.114 ± 0.051.
The figure for QKTCLICGDEASGCHYGALTCASCKVFFKRAAEGKQKYLCASRNDCTIDKFRRKNCPSCRLRKCYEAGMTLGARKL is -0.025 ± 0.056; for QKTCLICGDEASGCHYGALTCHSCKVFFKRAAEGKQKYLCASRNDCTIDKFRRKNCPSCRLRKCYEAGMTLGARKL it is -0.152 ± 0.068.
Then QKTCLICGDEASGCHYGALTCTSCKVFFKRAAEGKQKYLCASRNDCTIDKFRRKNCPSCRLRKCYEAGMTLGARKL, with -0.06 ± 0.063; and QKTCLICGDEASGCHYGALTCFSCKVFFKRAAEGKQKYLCASRNDCTIDKFRRKNCPSCRLRKCYEAGMTLGARKL, with -0.322 ± 0.053.
The figure for QKTCLICGDEASGCHYGALTCISCKVFFKRAAEGKQKYLCASRNDCTIDKFRRKNCPSCRLRKCYEAGMTLGARKL is -0.262 ± 0.054; for QKTCLICGDEASGCHYGALTCWSCKVFFKRAAEGKQKYLCASRNDCTIDKFRRKNCPSCRLRKCYEAGMTLGARKL it is -0.034 ± 0.052; for QKTCLICGDEASGCHYGALTCESCKVFFKRAAEGKQKYLCASRNDCTIDKFRRKNCPSCRLRKCYEAGMTLGARKL it is 0.064 ± 0.062.
Take QKTCLICGDEASGCHYGALTCPSCKVFFKRAAEGKQKYLCASRNDCTIDKFRRKNCPSCRLRKCYEAGMTLGARKL: the abundance fitness was -0.026 ± 0.071.
The figure for QKTCLICGDEASGCHYGALTCRSCKVFFKRAAEGKQKYLCASRNDCTIDKFRRKNCPSCRLRKCYEAGMTLGARKL is -0.166 ± 0.047; for QKTCLICGDEASGCHYGALTCQSCKVFFKRAAEGKQKYLCASRNDCTIDKFRRKNCPSCRLRKCYEAGMTLGARKL it is -0.037 ± 0.058.
QKTCLICGDEASGCHYGALTGGSCKVFFKRAAEGKQKYLCASRNDCTIDKFRRKNCPSCRLRKCYEAGMTLGARKL: the abundance fitness is -0.976 ± 0.099.
Then QKTCLICGDEASGCHYGALTVGSCKVFFKRAAEGKQKYLCASRNDCTIDKFRRKNCPSCRLRKCYEAGMTLGARKL, with -0.754 ± 0.068; and QKTCLICGDEASGCHYGALTLGSCKVFFKRAAEGKQKYLCASRNDCTIDKFRRKNCPSCRLRKCYEAGMTLGARKL, with -0.993 ± 0.16; and QKTCLICGDEASGCHYGALTKGSCKVFFKRAAEGKQKYLCASRNDCTIDKFRRKNCPSCRLRKCYEAGMTLGARKL, with -0.988 ± 0.17.
Then QKTCLICGDEASGCHYGALTYGSCKVFFKRAAEGKQKYLCASRNDCTIDKFRRKNCPSCRLRKCYEAGMTLGARKL, with -0.849 ± 0.2.
Then QKTCLICGDEASGCHYGALTRGSCKVFFKRAAEGKQKYLCASRNDCTIDKFRRKNCPSCRLRKCYEAGMTLGARKL, with -0.895 ± 0.1; and QKTCLICGDEASGCHYGALTSGSCKVFFKRAAEGKQKYLCASRNDCTIDKFRRKNCPSCRLRKCYEAGMTLGARKL, with -1.05 ± 0.15.
Regarding QKTCLICGDEASGCHYGALTHGSCKVFFKRAAEGKQKYLCASRNDCTIDKFRRKNCPSCRLRKCYEAGMTLGARKL, the abundance fitness is -0.602 ± 0.15.
The figure for QKTCLICGDEASGCHYGALTIGSCKVFFKRAAEGKQKYLCASRNDCTIDKFRRKNCPSCRLRKCYEAGMTLGARKL is -0.777 ± 0.11; for QKTCLICGDEASGCHYGALTEGSCKVFFKRAAEGKQKYLCASRNDCTIDKFRRKNCPSCRLRKCYEAGMTLGARKL it is -0.68 ± 0.12; for QKTCLICGDEASGCHYGALTPGSCKVFFKRAAEGKQKYLCASRNDCTIDKFRRKNCPSCRLRKCYEAGMTLGARKL it is -1.21 ± 0.21.
Consider QKTCLICGDEASGCHYGALTQGSCKVFFKRAAEGKQKYLCASRNDCTIDKFRRKNCPSCRLRKCYEAGMTLGARKL, for which the abundance fitness is -0.564 ± 0.13.
Take QKTCLICGDEASGCHYGALTMGSCKVFFKRAAEGKQKYLCASRNDCTIDKFRRKNCPSCRLRKCYEAGMTLGARKL: the abundance fitness is -0.953 ± 0.12.
QKTCLICGDEASGCHYGALTWGSCKVFFKRAAEGKQKYLCASRNDCTIDKFRRKNCPSCRLRKCYEAGMTLGARKL: the abundance fitness is -0.694 ± 0.2.
Consider QKTCLICGDEASGCHYGALTDGSCKVFFKRAAEGKQKYLCASRNDCTIDKFRRKNCPSCRLRKCYEAGMTLGARKL, for which the abundance fitness was -1.23 ± 0.32.
Then QKTCLICGDEASGCHYGALTAGSCKVFFKRAAEGKQKYLCASRNDCTIDKFRRKNCPSCRLRKCYEAGMTLGARKL, with -0.732 ± 0.1; and QKTCLICGDEASGCHYGALTTGSCKVFFKRAAEGKQKYLCASRNDCTIDKFRRKNCPSCRLRKCYEAGMTLGARKL, with -0.81 ± 0.095.
Take QKTCLICGDEASGCHYGALWCGSCKVFFKRAAEGKQKYLCASRNDCTIDKFRRKNCPSCRLRKCYEAGMTLGARKL: the abundance fitness is -0.637 ± 0.084.
Then QKTCLICGDEASGCHYGALVCGSCKVFFKRAAEGKQKYLCASRNDCTIDKFRRKNCPSCRLRKCYEAGMTLGARKL, with 0.04 ± 0.038; and QKTCLICGDEASGCHYGALSCGSCKVFFKRAAEGKQKYLCASRNDCTIDKFRRKNCPSCRLRKCYEAGMTLGARKL, with 0.047 ± 0.046.
